Results taken from patent publication US20100196385A1.

Experiments:
[1] = target: human Dll1 (human) (UniProt O00548); test: FACS, 0.2 µg/ml, 293T cells with human Dll1 vs mock
[2] = target: human Dll1 (human) (UniProt O00548); test: FACS, 1 µg/ml, 293T cells with human Dll1
[3] = target: human Dll1 (human) (UniProt O00548); test: FACS, 1 µg/ml, 293T cells with human Dll1 vs mock
[4] = target: human Dll1 (human) (UniProt O00548); test: FACS, 5 µg/ml, 293T cells with human Dll1 vs mock
[5] = target: human Dll1 (human) (UniProt O00548); test: FACS, 5 µg/ml, 293T cells with human Dll1
[6] = target: human Dll1 (human) (UniProt O00548); test: FACS, 0.2 µg/ml, 293T cells with human Dll1
[7] = target: DLL4 extracellular domain (R&D systems, catalog #1506-D4/CF) (UniProt Q9NR61); test: cell-based or functional assay
[8] = target: human Jagged1 (human) (UniProt P78504); test: FACS, 0.2 µg/ml, 293T cells with human Jagged1
[9] = target: human Jagged1 (human) (UniProt P78504); test: FACS, 1 µg/ml, 293T cells with human Jagged1 vs mock
[10] = target: human Jagged1 (human) (UniProt P78504); test: FACS, 5 µg/ml, 293T cells with human Jagged1
[11] = target: human Jagged1 (human) (UniProt P78504); test: FACS, 1 µg/ml, 293T cells with human Jagged1
[12] = target: human Jagged1 (human) (UniProt P78504); test: FACS, 5 µg/ml, 293T cells with human Jagged1 vs mock
[13] = target: human Jagged1 (human) (UniProt P78504); test: FACS, 0.2 µg/ml, 293T cells with human Jagged1 vs mock

human Dll1 (human), sequence (O00548 18-723): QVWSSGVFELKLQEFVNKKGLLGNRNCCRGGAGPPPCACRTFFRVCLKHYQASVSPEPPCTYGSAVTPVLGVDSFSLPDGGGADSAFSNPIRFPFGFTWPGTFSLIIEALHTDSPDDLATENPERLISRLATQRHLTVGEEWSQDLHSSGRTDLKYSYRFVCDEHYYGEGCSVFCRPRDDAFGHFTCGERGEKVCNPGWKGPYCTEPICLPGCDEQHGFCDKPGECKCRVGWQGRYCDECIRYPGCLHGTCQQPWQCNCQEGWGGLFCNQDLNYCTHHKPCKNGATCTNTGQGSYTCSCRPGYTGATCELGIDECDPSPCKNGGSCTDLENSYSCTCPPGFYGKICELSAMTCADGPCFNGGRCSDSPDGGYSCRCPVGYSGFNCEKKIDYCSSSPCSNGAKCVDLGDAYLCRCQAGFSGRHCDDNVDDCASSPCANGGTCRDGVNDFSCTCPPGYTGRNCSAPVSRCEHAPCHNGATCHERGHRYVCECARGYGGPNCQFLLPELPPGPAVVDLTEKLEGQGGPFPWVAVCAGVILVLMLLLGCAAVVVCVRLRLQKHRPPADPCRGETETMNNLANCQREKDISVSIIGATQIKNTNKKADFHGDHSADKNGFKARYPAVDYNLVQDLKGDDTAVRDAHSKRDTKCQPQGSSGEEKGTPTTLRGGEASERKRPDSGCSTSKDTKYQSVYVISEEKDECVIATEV
DLL4 extracellular domain (R&D systems, catalog #1506-D4/CF), sequence (Q9NR61 27-529 limits assumed): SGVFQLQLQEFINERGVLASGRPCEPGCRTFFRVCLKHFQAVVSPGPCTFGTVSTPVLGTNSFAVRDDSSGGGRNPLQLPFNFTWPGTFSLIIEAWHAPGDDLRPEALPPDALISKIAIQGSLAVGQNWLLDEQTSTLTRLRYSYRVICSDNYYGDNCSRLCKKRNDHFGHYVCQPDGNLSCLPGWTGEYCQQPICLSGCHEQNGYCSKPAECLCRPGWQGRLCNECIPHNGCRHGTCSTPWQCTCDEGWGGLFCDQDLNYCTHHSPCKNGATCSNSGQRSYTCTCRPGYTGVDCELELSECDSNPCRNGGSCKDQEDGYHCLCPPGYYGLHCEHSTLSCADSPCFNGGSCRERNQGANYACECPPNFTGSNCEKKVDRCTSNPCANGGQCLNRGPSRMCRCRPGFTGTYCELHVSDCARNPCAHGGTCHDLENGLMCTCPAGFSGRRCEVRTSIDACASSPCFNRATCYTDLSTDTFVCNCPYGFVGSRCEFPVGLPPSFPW
human Jagged1 (human), sequence (P78504 34-1218): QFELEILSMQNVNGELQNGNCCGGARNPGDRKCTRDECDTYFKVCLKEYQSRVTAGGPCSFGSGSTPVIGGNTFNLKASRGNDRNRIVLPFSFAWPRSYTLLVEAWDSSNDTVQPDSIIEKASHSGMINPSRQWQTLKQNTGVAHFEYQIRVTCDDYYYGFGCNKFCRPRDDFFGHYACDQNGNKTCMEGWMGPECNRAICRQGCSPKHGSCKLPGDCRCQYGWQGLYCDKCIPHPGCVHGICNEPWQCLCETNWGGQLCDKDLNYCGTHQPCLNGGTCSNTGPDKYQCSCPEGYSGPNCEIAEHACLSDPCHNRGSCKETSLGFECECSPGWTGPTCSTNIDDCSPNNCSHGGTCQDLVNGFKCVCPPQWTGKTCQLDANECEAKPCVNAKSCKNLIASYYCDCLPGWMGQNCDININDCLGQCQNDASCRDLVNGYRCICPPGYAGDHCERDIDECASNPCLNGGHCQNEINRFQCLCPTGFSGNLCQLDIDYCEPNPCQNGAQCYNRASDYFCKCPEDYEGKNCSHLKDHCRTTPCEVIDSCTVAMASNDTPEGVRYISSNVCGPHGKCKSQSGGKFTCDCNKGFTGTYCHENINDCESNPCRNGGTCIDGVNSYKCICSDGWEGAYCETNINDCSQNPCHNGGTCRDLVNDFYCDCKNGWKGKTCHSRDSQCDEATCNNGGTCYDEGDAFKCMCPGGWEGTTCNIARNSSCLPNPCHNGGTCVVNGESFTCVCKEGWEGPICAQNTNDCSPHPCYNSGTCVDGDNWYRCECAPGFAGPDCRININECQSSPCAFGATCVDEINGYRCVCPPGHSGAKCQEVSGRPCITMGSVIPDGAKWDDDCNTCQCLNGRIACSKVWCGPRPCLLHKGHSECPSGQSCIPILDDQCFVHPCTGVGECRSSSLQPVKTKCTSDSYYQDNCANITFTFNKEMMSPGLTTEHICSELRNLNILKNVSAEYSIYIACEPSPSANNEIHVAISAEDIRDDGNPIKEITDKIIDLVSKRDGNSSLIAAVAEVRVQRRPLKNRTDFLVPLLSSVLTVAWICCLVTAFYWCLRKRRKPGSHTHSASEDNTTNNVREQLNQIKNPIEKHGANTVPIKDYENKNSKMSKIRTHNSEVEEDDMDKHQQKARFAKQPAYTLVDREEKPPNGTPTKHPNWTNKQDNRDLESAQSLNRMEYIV

| Substance | % inhibition 1 µg/ml, AVERAGE (HUVEC proliferation on coated DLL4) [7] [%] | % inhibition 1 µg/ml, N = 1 (HUVEC proliferation on coated DLL4) [7] [%] | % inhibition 1 µg/ml, N = 2 (HUVEC proliferation on coated DLL4) [7] [%] | % inhibition 10 µg/ml, AVERAGE (HUVEC proliferation on coated DLL4) [7] [%] | % inhibition 10 µg/ml, N = 1 (HUVEC proliferation on coated DLL4) [7] [%] | % inhibition 10 µg/ml, N = 2 (HUVEC proliferation on coated DLL4) [7] [%] | further results |
| --- | --- | --- | --- | --- | --- | --- | --- |
| Goat anti-human Dll1 antibody (R&D systems cat #AF1818) |  |  |  |  |  |  | Dll1/mock ratio [1]: 6.94; Dll1/293T X Geo mean [2]: 1240; Dll1/mock ratio [3]: 6.33; Dll1/mock ratio [4]: 7.68; Dll1/293T X Geo mean [5]: 1840; Dll1/293T X Geo mean [6]: 565 |
| Control IgG4 (antibody) | 11 | 14 | 8 | 2 | 6 | -3 |  |
| Control IgG2 (antibody) | 9 | 18 | 0 | 10 | 11 | 9 |  |
| Mouse anti-human Jagged 1 antibody (R&D systems, catalog #mAB1277) |  |  |  |  |  |  | Jagged1/293T X Geo mean [8]: 50.7; Jagged1/mock ratio [9]: 3.94; Jagged1/293T X Geo mean [10]: 196; Jagged1/293T X Geo mean [11]: 119; Jagged1/mock ratio [12]: 4.29; Jagged1/mock ratio [13]: 3.38 |
